These results are taken from article PMC6200708, “Tannerella forsythia Tfo belongs to Porphyromonas gingivalis HmuY-like family of proteins but differs in heme-binding properties” (Bioscience Reports, 2018).

The target in one experiment is HmuY (Porphyromonas gingivalis, UniProt A2BCY8). Description: UV-visible difference-spectrum heme titration of purified protein, one-site model; CD and MCD. The experiment is classed as binding.
Experiment [1] has as its target Porphyromonas gingivalis A7436 HmuY protein (Porphyromonas gingivalis A7436). Nature of the experiment: SEC; holo protein (with heme), under oxidizing conditions.
Experiment [2] has the same target. Description: SDS/PAGE; purified protein run on SDS/PAGE; samples solubilized at 37°C for 1 h or at 100°C for 5 min.
In experiment [3] the target is Tannerella forsythia ATCC 43037 Tfo protein (Tannerella forsythia ATCC 43037). Description: SEC; holo protein (with heme), under reducing conditions.

Regarding `C=CC1=C(C)C2=Cc3c(C=C)c(C)c4[n]3[Fe][n]3c(c(C)c(CCC(=O)O)c3=CC3=NC(=C4)C(C)=C3CCC(=O)O)=CC1=N2` [heme], the Kd (usually the equilibrium constant for the complex coming apart) on HmuY is below 1 nM.

Take “Porphyromonas gingivalis A7436 HmuY protein (natural protein)”: the stoichiometry N in experiment [1] and in experiment [2] was 2 throughout.

On to “Tannerella forsythia ATCC 43037 Tfo protein (natural protein)”, for which the stoichiometry N (commonly a count of units in the complex or per binding partner) in experiment [3] worked out at 2.
